Article doi:10.1101/459487 (bioRxiv, 2018)

Assays:
[1] = target: full-length GST-EFCAB9 (mouse) (mouse, UniProt Q9DAM2 1-216); assay: pull-down
[2] = target: GST-EFCAB9^Mut2 (D72N/E160Q) (mouse, UniProt Q9DAM2 1-216, D72N | E160Q); assay: pull-down
GST-EFCAB9^Mut2 (D72N/E160Q), sequence (Q9DAM2 whole entry D72N/E160Q): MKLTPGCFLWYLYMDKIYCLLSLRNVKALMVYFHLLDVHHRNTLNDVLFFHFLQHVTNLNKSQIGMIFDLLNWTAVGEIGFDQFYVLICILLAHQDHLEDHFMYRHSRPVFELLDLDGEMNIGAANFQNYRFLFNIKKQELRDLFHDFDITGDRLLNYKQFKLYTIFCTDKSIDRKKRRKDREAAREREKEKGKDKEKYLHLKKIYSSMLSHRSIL

full-length GST-EFCAB9 (mouse), sequence (Q9DAM2 whole entry): as the sequence (Q9DAM2 whole entry D72N/E160Q) above, with N72D, Q160E counted along it

binding result [1]: binds
binding result [2]: binds
B1: 6xHis-tagged mouse CatSperζ fused to GB1 (natural protein)
chain: MEESVKPVPKHANHRRSSVRSSLYGDVRDLWSTATMSTANVSVSDVCEDFDEEGKSVRNRIRKYSQTISIRDSLNLEPEEIQQQARRELELCHGRSLEHGEDHEESETSLASSTSESLIFSLWKPHRTYWTEQQNRLPLPLMELMETEVLDILKKALITYRSTIGRNHFMTKELQGYIEGIRKRRNKRLYFLDQ
